Test results reported in publication PMC4072569 (Molecular Biology of the Cell, 2014).

B1: Blt1p-hexahistidine (natural protein, S. pombe, UniProt O74338 1-700, looked up)
chain: MSKSAFTSKSQLKGIDGSFNDPFRQPSMNLPTPPHDDGLPSIPRSTALPNLSNRLSPYSHRNYLPIPEADSRNLEVLNSISLTTGSVVNQINKLYQRSCDNANYLQDLRSLILQTPTAEANATQVTESLNQIQKILQEASSKDREQIVQVIKELNKGNSLEVRRELGNCLAHLKKGTLNIDNALQASLQKYWKELQYFNVSKDKLLSLEESIKLLSARLEETDTPSSTHWIEINAGFKEVGDELSENFQRKQEILSGLQNNVILRTNNRKPVGSDGSNSNFNGGEEQMDSKDQEEIQDYLNSLLSVHEKDGVLLQKFHNSYVQYQKLAVALSKYENFDADKLFQQMNLAKQSNETLLQTLTEQTDQLLSFKETMDSFKFILGPSMENQALQQGILAEQQDLVAQLRDIVLRSETLAENPSNMPGSCLPGASSNTADEFTEQLNLLKNEVARLSAICPSPNSGINASVLTNADNLEKENLLLVNNNAFKVDDRSVSSVALDDHNRQLQMNVEELEGKKADLTSKINRLDKDFVKLNTTYSLLTDQVKTKQLALQEIESRVIRLEERLNMLQKLSMQPAISSSSEFVPIESHPSSSAVVPIEEPKNSIIEKKRVPHNAARNSVNLEVTLPNSKKRFSSFSGSSSKLPVRPSTALTDKRKPSWSRRLAAAIGFSSGSPEKKHVITSSDAGHQRSKSRSFSSKM

Legend:
[1] = target: B1; experiment: pull-down
[2] = target: the molecule itself; experiment: AUC

Row | percent pulled down from lysate [1] | Binder | stoichiometry N [2]
1 | 23% | Cdc15p-mEGFP (natural protein, S. pombe, UniProt Q09822 1-927, looked up) MEVNGVSQSEAAPYVTKSSVKFRDNFWGSEDAGMDALMSRTKSSLSVLESIDEFYAKRASIEREYASKLQELAASSADIPEVGSTLNNILSMRTETGSMAKAHEEVSQQINTELRNKIREYIDQTEQQKVVAANAIEELYQKKTALEIDLSEKKDAYEYSCNKLNSYMRQTKKMTGRELDKYNLKIRQAALAVKKMDAEYRETNELLLTVTREWIDRWTEVCDAFQHIEEYRLEFLKTNMWAYANIISTACVKDDESCEKIRLTLENTNIDEDITQMIQNEGTGTTIPPLPEFNDYFKENGLNYDIDQLISKAPSYPYSSSRPSASASLASSPTRSAFRPKTSETVSSEVVSSPPTSPLHSPVKPVSNEQVEQVTEVELSIPVPSIQEAESQKPVLTGSSMRRPSVTSPTFEVAARPLTSMDVRSSHNAETEVQAIPAATDISPEVKEGKNSENAITKDNDDIILSSQLQPTATGSRSSRLSFSRHGHGSQTSLGSIKRKSIMERMGRPTSPFMGSSFSNMGSRSTSPTKEGFASNQHATGASVQSDELEDIDPRANVVLNVGPNMLSVGEAPVESTSKEEDKDVPDPIANAMAELSSSMRRRQSTSVDDEAPVSLSKTSSSTRLNGLGYHSRNTSIASDIDGVPKKSTLGAPPAAHTSAQMQRMSNSFASQTKQVFGEQRTENSARESLRHSRSNMSRSPSPMLSRRSSTLRPSFERSASSLSVRQSDVVSPAPSTRARGQSVSGQQRPSSSMSLYGEYNKSQPQLSMQRSVSPNPLGPNRRSSSVLQSQKSTSSNTSNRNNGGYSGSRPSSEMGHRYGSMSGRSMRQVSQRSTSRARSPEPTNRNSVQSKNVDPRATFTAEGEPILGYVIALYDYQAQIPEEISFQKGDTLMVLRTQEDGWWDGEIINVPNSKRGLFPSNFVQTV | –
2 | 42% | Mob1p-mEGFP (natural protein, S. pombe, UniProt O94360 1-210, looked up) MFGFSNKTAKTFRVRKTEAGTKHYQLRQYAEATLGSGSLMEAVKLPKGEDLNEWIAMNTMDFYTQINMLYGTITEFCTAASCPQMNAGPSYEYYWQDDKIYTKPTRMSAPDYINNLLDWTQEKLDDKKLFPTEIGVEFPKNFRKVIQQIFRRLFRIYAHIYCSHFHVMVAMELESYLNTSFKHFVFFCREFGLMDNKEYAPMQDLVDSMV | –
3 | – | B1 | 4
4 | 22% | Sid2p-mEGFP (natural protein, S. pombe, UniProt Q09898 1-607, looked up) MNRVNDMSPVEGDLGLQLSSEADKKFDAYMKRHGLFEPGNLSNNDKERNLEDQFNSMKLSPVASSKENYPDNHMHSKHISKLPIASPIPRGLDRSGELSYKDNNHWSDRSSTGSPRWENGSMNLSVEEMEKVVQPKVKRMATICQMFFLDHYFEQLHYLYTRKQRARLFEEQLLKEPDSRRDELVKRYNGRERVYLRKRRTRISHGDFQTITQVGQGGYGSVWLARKRDTKEIVALKIMNKSVLHKMDEIRHVLTERDILTTANSEWLVRLLYAFQDTSNIYLAMEFVPGGDFRTLLSNSGVLRDHHAKFYATEMFLAIDALHQLGYIHRDLKPENFLVGASGHIKLTDFGLSSGIISKKKIESMKIRLQEVNNVVVPERSMRERRQVFRTLLSQDPVYAHSVVGSPDYMAPEVLRGENYNHSVDYWSLGCIMYECLSGFPPFSGSNVNETWSNLKNWRKCFQRPHYDDPRDLEFNWRDDAWDFVCHCITDPKDRFCSLKQVMQHPYFSKIDWKNVRTAYRPPFVPDLNSEIDAGYFDDFTNENDMSKYKEVHEKQAAIANMVNTFNKPKRNAFIGFTFRHQKNSHPTSSSSALSSPLSAPSFGTLL | –
